Laboratory results: US7666414B2, “Methods for treating prostate cancer using modified antibodies to prostate-specific membrane antigen” (Cornell Research Foundation, Inc., dated 2010)
Substitutions are numbered along the chain they refer to. One block for each binder: values may come before it.

Target: prostate specific membrane antigen (PSMA) on LNCaP cells (human, UniProt Q04609)
Experiment: ELISA on plates coated with LNCaP membrane preparation, purified antibody

fold change against the chimeric antibody: 2 fold less
B1: deimmunized J415, heavy chain version 1 with light chain version 5 (antibody, V domains shown)
VH: EVKLEESGGGLVQPGGSMKISCKASGFTFSNYWMNWVRQTPEKGLEWVALIRSQSNNFATHYAESVKGRVIISRDDSKSSVYLQMNSLRAEDTAVYYCTRRWNNFWGQGTTVTVSS
VL: NIVMTQFPKSMSASAGERMTLTCKASENVGTYVSWYQQKPTQSPKMLIYGASNRFTGVPDRFSGSGSGTDFILTISSVQAEDLVDYYCGQSYTFPYTFGGGTKLEMK

fold change against the chimeric antibody: 2 fold less
B2: deimmunized J415, heavy chain version 2 with light chain version 5 (antibody, V domains shown)
VH: B1 VH with K23V
VL: B1 VL
